Assay results: article doi:10.1101/2025.06.22.660944, “Structures of MmpL complexes reveal the assembly and mechanism of this family of transporters” (bioRxiv, 2025)

Key:
[1] = target: MmpL5 transporter (M. smegmatis, MSMEG_1382) (M. smegmatis) (UniProt A0QS80); test: cryo-EM structure; particle class 3: dipartite AcpM-MmpL5 trimeric complex, 3.37 Å; same LMNG-solubilized crude membrane sample, Build and Retrieve processing
[2] = target: MmpL5 transporter (M. smegmatis, MSMEG_1382) (M. smegmatis) (UniProt A0QS80); test: cryo-EM structure; particle class 2: tripartite AcpM-MmpL5-MmpS5 trimeric complex, 2.81 Å; same LMNG-solubilized crude membrane sample, Build and Retrieve processing
[3] = target: T1, MmpL5 transporter (M. smegmatis, MSMEG_1382) (M. smegmatis, UniProt A0QS80 1-967); test: as above; conditions: partners not purified
T1 construct: MmpL5, M. smegmatis, gene MSMEG_1382; 12 transmembrane helices and periplasmic subdomains PD1-PD3 (PD3 residues 499-684); Seen as a monomer (one chain per AcpM-MmpL5 unit in 2D arrays) and as a homotrimer (in AcpM-MmpL5-MmpS5 and trimeric AcpM-MmpL5) in the same sample; copies therefore left empty; also called mycobacterial membrane protein large 5; source: M. smegmatis MC2-155, co-expressed with …
T1 sequence (looked up): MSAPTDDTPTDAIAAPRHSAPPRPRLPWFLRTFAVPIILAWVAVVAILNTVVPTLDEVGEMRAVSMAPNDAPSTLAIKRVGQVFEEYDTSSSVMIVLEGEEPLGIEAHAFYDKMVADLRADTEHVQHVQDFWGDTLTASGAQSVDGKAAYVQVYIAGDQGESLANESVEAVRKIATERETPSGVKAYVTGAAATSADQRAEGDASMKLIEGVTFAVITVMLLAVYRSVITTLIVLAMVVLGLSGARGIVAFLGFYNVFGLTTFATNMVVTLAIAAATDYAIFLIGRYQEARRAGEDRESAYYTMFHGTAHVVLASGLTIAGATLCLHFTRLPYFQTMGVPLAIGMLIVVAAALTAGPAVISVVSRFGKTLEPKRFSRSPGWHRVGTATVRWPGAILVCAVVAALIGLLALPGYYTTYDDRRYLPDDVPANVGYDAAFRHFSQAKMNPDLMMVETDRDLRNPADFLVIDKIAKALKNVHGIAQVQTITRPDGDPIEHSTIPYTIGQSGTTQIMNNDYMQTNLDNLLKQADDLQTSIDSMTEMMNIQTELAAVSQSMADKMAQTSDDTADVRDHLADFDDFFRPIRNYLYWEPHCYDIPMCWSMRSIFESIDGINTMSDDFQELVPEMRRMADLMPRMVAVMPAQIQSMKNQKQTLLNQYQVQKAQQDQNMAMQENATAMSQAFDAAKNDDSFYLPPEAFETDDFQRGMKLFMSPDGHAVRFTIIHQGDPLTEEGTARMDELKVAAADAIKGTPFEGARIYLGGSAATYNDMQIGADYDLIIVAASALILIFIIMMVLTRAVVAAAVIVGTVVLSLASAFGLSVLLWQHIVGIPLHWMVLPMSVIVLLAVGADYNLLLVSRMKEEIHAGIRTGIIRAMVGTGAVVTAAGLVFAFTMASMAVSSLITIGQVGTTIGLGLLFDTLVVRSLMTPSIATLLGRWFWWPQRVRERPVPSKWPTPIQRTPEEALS

[4] = target: T1, MmpL5 transporter (M. smegmatis, …); test: cryo-EM structure; particle class 1: AcpM-MmpL5 monomeric units in 2D arrays, 3.35 Å; LMNG-solubilized crude M. smegmatis membranes enriched by sucrose cushion, Build and Retrieve processing; conditions: partners not purified

“MmpL5 transporter (M. smegmatis, MSMEG_1382) (from UniProt A0QS80 1-967) (natural protein)” gave a stoichiometry N [1] of 3 and a stoichiometry N [2] of 3.

Molecule “MmpS5 adaptor (M. smegmatis, MSMEG_1381) (natural protein)” has a stoichiometry N (MmpS5 per MmpL5 (3:3)) [2] of 1.

B1: meromycolate extension acyl carrier protein M (AcpM) (natural protein, UniProt A0R0B3 1-99, looked up)
chain: MAATQEEIIAGLAEIIEEVTGIEPSEVTPEKSFVDDLDIDSLSMVEIAVQTEDKYGVKIPDEDLAGLRTVGDVVAYIQKLEEENPEAAAALREKFAADQ
notes: AcpM, meromycolate extension acyl carrier protein M, of the M. smegmatis host; identified from the cryo-EM map (manual building, DeepTracer) and confirmed by proteomics; Not overexpressed; came along with MmpL5 from the host cells; source: endogenous, M. smegmatis MC2-155; found in the detergent-solubilized crude membranes enriched by sucrose cushion centrifugation
For B1, the “stoichiometry N” value [3] was 1 AcpM per MmpL5 (3:3) and the “stoichiometry N” value [4] was 1 AcpM per MmpL5 (1:1).
